Data set [1] deals with SUR2A nucleotide binding domain 2 (NBD2, G1301-K1546) (murine). As to the kind of experiment: SAXS.
Data set [2] concerns the molecule itself. As to the kind of experiment: SAXS.

For “SUR2A nucleotide binding domain 2 (NBD2, G1301-K1546) (domain or fragment)”, the stoichiometry N (commonly a count of units in the complex or per binding partner) in data set [1] is 8.

B1: SUR2A nucleotide binding domain 1 (NBD1, D666-890) (domain or fragment, murine, UniProt P70170-1 666-890, looked up)
chain: DIAIKVTNGYFSWGSGLATLSNIDIRIPTGQLTMIVGQVGCGKSSLLLAILGEMQTLEGKVYWNNVNESEPSFEATRSRSRYSVAYAAQKPWLLNATVEENITFGSPFNRQRYKAVTDACSLQPDIDLLPFGDQTEIGERGINLSGGQRQRICVARALYQNTNIVFLDDPFSALDIHLSDHLMQEGILKFLQDDKRTVVLVTHKLQYLTHADWIIAMKDGSVLRE
As to B1, the “stoichiometry N” value in data set [2] stood at 8.

The record behind these values is publication PMC2818519 (Journal of structural biology, 2009).
